Results taken from patent publication US20260226160A1 (ISAR BIOSCIENCE, published 2026).
Substitutions are numbered along the chain they refer to.

Tests used:
[1] = biological target: T1, human TREM2 (hTREM2) on cells (human, UniProt Q9NZC2 19-230); experiment: cell-based or functional assay
T1 sequence (looked up): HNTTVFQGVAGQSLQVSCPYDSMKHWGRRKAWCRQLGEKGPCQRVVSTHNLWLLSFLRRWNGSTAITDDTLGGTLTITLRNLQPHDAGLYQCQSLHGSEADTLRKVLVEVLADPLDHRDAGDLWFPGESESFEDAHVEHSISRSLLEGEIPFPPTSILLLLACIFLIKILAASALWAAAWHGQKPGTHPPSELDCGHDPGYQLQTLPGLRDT

[2] = biological target: T2, extracellular domain of human TREM2 (ecTREM2), Hölzel Diagnostika 11084-H08H (human, UniProt Q9NZC2 19-174); experiment: ELISA, coated ecTREM2
T2 construct: extracellular domain; also called human ecTREM2; ecTREM2 domain
T2 sequence (looked up): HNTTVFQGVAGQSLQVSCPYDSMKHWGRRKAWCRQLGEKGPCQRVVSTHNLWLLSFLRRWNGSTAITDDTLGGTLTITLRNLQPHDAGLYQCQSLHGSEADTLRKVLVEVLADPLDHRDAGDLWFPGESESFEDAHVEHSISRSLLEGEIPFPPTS
Experimental: (§1) Anti-TREM2 antibody binding to the extracellular domain of TREM2 (ecTREM2) or to the human or mouse peptide fragment of the stalk region of TREM2 were quantified in an ELISA assay. All procedures were performed at room temperature and incubations were done on a microtiter plate shaker. ELISA plate was coated with 60 μl/well (final concentration 0.5 μg/ml) of the according ligand (ecTREM2 (Hölzel Diagnostika, 11084-H08H) or human or mouse TREM2 peptide fragment) in coating buffer (NaHCO₃) for 1 h. The coated plate was washed three times with PBS-T (PBS, 0.1% Tween-20), blocked with 100 μl/well of blocking solution (PBS-T, 3% milk powder) for 1 h, and washed again. Antibodies were pre-diluted 1:10 in PBS and set to a concentration of 1 μg/ml. A dilution series was performed with dilution steps of 1:3 and 1:10. 50 μl/well of diluted AB were transferred to the blocked ELISA plate and incubated for 1 h. The plate was washed three times with PBS-T and incubated with anti-human-Strep-POD (Jackson Immunoresearch, #109-035-098) diluted in PBS-T 1:10000 for 1 h. After washing three times, bound POD was detected by incubation with 100 μl/well of TMB substrate (Thermo Scientific, #34029) until a maximal optical density (OD) of about 1 to 2 was reached. Finally, the colorimetric reaction was stopped with 100 μl/well stopping solution (1M H₂SO₄) and the OD determined at a wavelength of 450 nm with a reference wavelength of 595 nm in a plate reader (SpectraMax i3xl).
(§2) We determined the binding affinity of all antibody clones including M07 as well as of the control antibody H01 and negative control (not shown here), to ecTREM2 by an ELISA-based binding assay (FIG. 2).

[3] = biological target: T3, epitope peptide from the human TREM2 stalk region (DAGDLWFPG) (human); experiment: ELISA, coated epitope peptide SEQ ID NO: 16
T3 construct: also called human TREM2 peptide fragment
T3 peptide: DAGDLWFPG
Experimental: as §1

[4] = biological target: T3, epitope peptide from the human TREM2 …; experiment: ELISA, coated epitope peptide (0.5 µg/ml), antibody dilution series
Experimental: as §1, with “The plate was washed three times with PBS-T and incubated with anti-human-Strep-POD (Jackson Immunoresearch, #109-035-098) diluted in PBS-T 1:10000 for 1 h.” left out

[5] = biological target: T2, extracellular domain of human TREM2 …; experiment: ELISA, coated ecTREM2 (0.5 µg/ml), antibody dilution series
Experimental: as §1, with “A dilution series was performed with dilution steps of 1:3 and 1:10. 50 μl/well of diluted AB were transferred to the blocked ELISA plate and incubated for 1 h. The plate was washed three times with PBS-T and incubated with anti-human-Strep-POD (Jackson Immunoresearch, #109-035-098) diluted in PBS-T 1:10000 for 1 h.” left out
as §2

[6] = biological target: T1, human TREM2 (hTREM2) on cells; experiment: printed with the p-SYK titration curve of M07 on HEK293-Flp-In hTREM2/hDAP12 cells (FIG. 6B); how it was derived is not told
Experimental: Phosphorylated SYK (p-Syk) was measured using the AlphaLISA SureFire Ultra p-SYK Assay Kit (PerkinElmer, ALSU-PSYK-A-HV) following the manufacturer's instructions. Briefly, HEK293 cells overexpressing human TREM2 and human DAP12 were plated in 50 μl media at a density of 50,000 cells/well in a 96-well plate and incubated overnight at 37° C. in a cell culture incubator. The next day medium was removed and 50 μl of antibody diluted in medium was added to the cells. Following an incubation for 5 min at 37° C. treatment solutions were removed and cells were lysed with 50 μl lysis buffer supplemented with phosphatase inhibitor (VWR) for 10 min on a plate shaker (~350 rpm). 30 μl of lysate were then used for further incubation steps with acceptor and donor beads (each for 1 h) following analysis using a CLARIOstar^Plus Plate Reader (BMG Labtech).

[7] = biological target: T1, human TREM2 (hTREM2) on cells; experiment: cell-based or functional assay; remark: listed apart in the source

B1: antibody M03 (clone M03), fully human IgG1-LALA (antibody, V domains shown)
VH: EVQLVQSGGGLVQPGGSLRLSCAASGFTFSSYGITWVRQAPGKGLEWVSFISGGGSYTYYADSVKGRFTISRDNAKRTLYLQMNSLRAEDTAVYYCARSGRAYFDYWGQGTLVTVSS
VL: DIRLTQPPSVSGAPGQRVTISCSGSSSNIGSLFVSWYQQLPGTAPKLLIYSNSQHPSGVPDRFSGSKSGTSASLAITGLQAEDEADYYCSAYDQFSNSVVFGGGTKLTVLG
[1]
  Mean values of fold increase over baseline (p-SYK AlphaLISA, 40 µg/ml antibody, HEK293-Flp-In hTREM2/hDAP12): 9.39 fold
[2]
  EC50: 0.35 nM
[3]
  EC50: 0.329 nM

B2: antibody M05 (clone M05), fully human IgG1-LALA (antibody, V domains shown)
VH: EVQLLESGGGLVQPGGSLRLSCAASGFTFSSNAMTWVRQAPGKGLEWVSVIGSSGSYTYYADSVKGRFTISRDNSKNTLYLQMNSLRAEDTAVYYCARSGTTGFDYWGQGTLVTVSS
VL: B1 VL with R3V, L4M, G12V, A13T, S23R, G24S, G111R
[4]
  binding result: no binding
[1]
  Mean values of fold increase over baseline (p-SYK AlphaLISA, 40 µg/ml antibody, HEK293-Flp-In hTREM2/hDAP12): 1.07 fold
[5]
  binding result: no binding

B3: antibody M07 (clone M07), fully human anti-hTREM2 IgG1-LALA-TFN (antibody, V domains shown)
VH: EVQLLESGGGLVQPGGSLRLTCAASGFTFSSYAMSWVRQAPGKGLEWVSVINGRGSNTYYADSVKGRFTITRDNSKNTLYLEMNSLRAEDTAVYYCARVRAYSGPSYGFDYWGQGTLVTVSS
VL: DIQLTQSPLSLSASAGDRVTITCRASQSIRDYLGWYQQKPGKAPKLLIYAASKLQSGVPSRFSGSGSGTDFTLTISSLQPEDFATYYCQQSYHTPPFTFGQGTKVEIKR
notes: leaders are cleaved off; also called anti-hTREM2 antibody M07; MO7
[6]
  Kd: 2.19 nM
[7]
  EC50 of p-SYK signaling titration in HEK293-Flp-In hTREM2/hDAP12: 4.39 nM
  SYK phosphorylation, fold increase: ≤ 60 fold
[1]
  Mean values of fold increase over baseline (p-SYK AlphaLISA, 40 µg/ml antibody, HEK293-Flp-In hTREM2/hDAP12): 36.1 fold
[2]
  EC50: 0.204 nM
[3]
  EC50: 0.335 nM

B4: antibody H08 (clone H08), fully human IgG1-LALA (antibody, V domains shown)
VH: EVQLVQSGGGLVQPGGSLRLSCAASGFTFSSYAMSWVRQAPGKGLEWVSAISGSGGSTYYADSVKGRFTISRDNAKRSLYLQMNDLRVEDTAVYYCARTRTNVFDFWGQGTMVTVSS
VL: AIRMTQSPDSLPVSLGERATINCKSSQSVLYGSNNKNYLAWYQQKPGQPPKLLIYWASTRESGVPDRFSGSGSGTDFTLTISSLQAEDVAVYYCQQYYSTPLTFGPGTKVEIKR
[1]
  Mean values of fold increase over baseline (p-SYK AlphaLISA, 40 µg/ml antibody, HEK293-Flp-In hTREM2/hDAP12): 3.22 fold
[2]
  EC50: 0.19 nM
[3]
  EC50: 0.832 nM
